These results are taken from patent publication US20030229203A1.

For one assay, the target named is CCR5 (human) (UniProt P51681). Description: cell-based or functional assay.
Another assay has as its target T1, CCR1 (UniProt P32246).
T1 sequence (looked up): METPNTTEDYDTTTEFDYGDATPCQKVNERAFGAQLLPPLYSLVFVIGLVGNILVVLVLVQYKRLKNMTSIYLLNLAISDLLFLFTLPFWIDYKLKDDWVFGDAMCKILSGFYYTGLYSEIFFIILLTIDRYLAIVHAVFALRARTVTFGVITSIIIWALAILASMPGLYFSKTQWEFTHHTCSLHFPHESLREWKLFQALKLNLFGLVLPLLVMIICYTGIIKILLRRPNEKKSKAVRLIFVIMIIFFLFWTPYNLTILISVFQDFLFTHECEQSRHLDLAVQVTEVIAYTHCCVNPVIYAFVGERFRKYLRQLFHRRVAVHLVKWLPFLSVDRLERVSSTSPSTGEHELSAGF
Kind of assay: cell-based or functional assay.

RANTES(3-68), sequence (P13501 26-91 limits assumed): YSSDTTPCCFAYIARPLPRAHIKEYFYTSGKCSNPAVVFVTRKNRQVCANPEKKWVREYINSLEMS
RANTES(1-68), sequence (P13501 24-91): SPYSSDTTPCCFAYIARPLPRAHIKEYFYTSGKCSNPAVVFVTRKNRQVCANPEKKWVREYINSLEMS
CCR5 (human), sequence (P51681 whole entry): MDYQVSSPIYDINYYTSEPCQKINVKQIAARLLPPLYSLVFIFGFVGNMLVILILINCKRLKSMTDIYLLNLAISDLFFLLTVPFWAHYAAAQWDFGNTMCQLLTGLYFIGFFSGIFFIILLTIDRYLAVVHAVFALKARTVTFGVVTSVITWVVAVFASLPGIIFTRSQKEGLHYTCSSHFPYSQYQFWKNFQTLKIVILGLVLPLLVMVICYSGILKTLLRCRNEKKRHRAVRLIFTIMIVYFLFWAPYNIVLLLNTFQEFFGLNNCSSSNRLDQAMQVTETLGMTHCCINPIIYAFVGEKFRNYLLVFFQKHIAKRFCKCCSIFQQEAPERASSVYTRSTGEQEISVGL

For the substance “RANTES(1-68) (from UniProt P13501 24-91) (ligand)”, in the assay with CCR5 (human), the concentration sufficient to induce a maximal Ca2+ response (Fura-2, HEK-293 cells expressing CCR5) is 10 nM. The same substance showed a concentration at which the Ca2+ response saturated (Fura-2, HOS-CD4 cells expressing CCR1) with CCR1 of 50 nM.

In the assay with CCR5 (human), “RANTES(3-68) (from UniProt P13501 26-91) (ligand)” gave a concentration sufficient to induce a maximal Ca2+ response (Fura-2, HEK-293 cells expressing CCR5) of 10 nM. In the assay with CCR1, this substance showed an amount required to produce a detectable Ca2+ response, relative to RANTES(1-68) (Fura-2, HOS-CD4 cells expressing CCR1) (times that for RANTES(1-68)) of 100 and a concentration at which the Ca2+ response saturated (Fura-2, HOS-CD4 cells expressing CCR1) above 200 nM.
